Test results published in US11045520B2, “Compositions and methods for topical delivery of pharmaceutical agents” (priority 2016, dated 2021).

Assays:
[1] = test system: human skin explants or xenograted human skin; assay: Confocal imaging of fluorescent dye distribution in ETA-desquamated skin (Example 2); conditions: for skin permeability after removal of S.C. by ETA: ETA 100 μg/mL treated vs untreated skin
Experimental: Human skin samples were fixed in 10% formaldehyde overnight and then embedded in paraffin. Samples were cut using a microtome to a thickness of 6 μM and baked on slides for 1 hour in a dry heat incubator at 58° C. Nuclei and eosinophillic structures were visualized by hematoxylin and eosin staining, respectively. The hematoxylin stains nuclei blue and eosins stains eosinophillic structures different shades of red. Histological images were taken with an inverted microscope.
The skin was either subjected to no treatment or application of ETA at 100 μg/mL.
To image the distribution of each dye in the human skin, human skin specimens were collected at 6, 12, 18 and 24 hours. Ordinary skin with intact S.C. and desquamated skin using ETA (methods previously described) were used. Frozen sections of human skin specimens were cut using a microtome to a thickness of 7 μM and DAPI was used for counter staining. Skin imaging was carried out at room temperature using Nikon confocal microscope equipped with NIS-Elements AR 3.10 software.

[2] = test system: human skin; assay: Franz cell diffusion apparatus assay, ETA-treated vs control skin (Example 3); format: in vitro ADME; conditions: ETA-treated human skin compared to non-treated control, 24 hours
Experimental: Permeation experiments with Franz diffusion cells were performed using human skin. The Franz diffusion cells were made of glass with a contact area of 1.35 cm^2, consisting of a donor compartment and a receptor compartment. The skin was mounted between the cell compartments and 2 O-ring shaped glasses were used to position the skin epidermis side-up and dermis side-down. The two cell compartments were held together with a clamp. […] It was kept at 37° C. on a heated plate. After 30 minutes of equilibration of the skin with the receptor solution, 200 μl of the drug solution was applied in the donor compartment with a pipet. The donor compartment was then covered with parafilm to prevent evaporation of the solvent. The receptor solution was continuously stirred using a spinning bar magnet at 200 rpm. Receptor solution samples, 0.2 ml aliquots, were withdrawn through the sampling port of the receptor compartment at various time intervals. The cells were refilled with a same amount of receptor solution to keep the volume of receptor solution constant during the experiment. The experiments were run for 24 hours. The fluorescent intensities collected from receptor compartments from normal and desquamated skin were compared over time using a spectrophotometer. […]

[3] = test system: skin epidermis and dermis; assay: Removal of S.C. by various methods and possible damage (FIG. 12)
Text: FIGS. 12A (panel a-d) and 12B depict removal of S.C. by various methods and possible damage. […] Even more damage to the dermis and epidermis are seen in skin treated by dermabrasion (panel d). In FIG. 12A, single headed arrow points to the epidermis and double headed arrows show clefting between epidermis and dermis.
Fractional laser treatment lead to unavoidable heat damage on the side of the holds that each radiated beam made.

[4] = test system: Stratum Corneum of human skin explants; assay: ETA desquamation of Stratum Corneum on human skin explants, H&E histology (Example 1)
Experimental: ETA was mixed with 10 mM PIPES at pH 6.5, 10 mM HEPES at pH 7.4, or 10 mM Tris at pH 8.0, at concentrations ranging from 25-1000 μg/mL. Each condition was also done separately as controls. These solutions were applied to human skin explants, obtained and prepared as follows. Human skin specimens were obtained from consenting patients undergoing abdominoplasty. Under a sterile condition, the tissue was placed and washed in a 70% ethanol solution and cold PBS. Fat layers were removed from the tissue, leaving a millimeter of dermis and an intact epidermis. The tissue was then cut into 10 mm×10 mm pieces and placed on gels composed of keratinocyte media supplemented with Human Keratinocyte Growth Supplement purchased from Invitrogen, and mixed in a 1:1 ratio with 2% agarose. The samples were stored at 37° C. in 5% CO2.
ETA solutions were incubated on top of the skin for 4 hours. Each buffer condition was also done separately without the presence of ETA as controls. […] That is to say, Stratum Corneum layer was peeled off mechanically with sterile gauze.
Histological images were taken with an inverted microscope.

[5] = test system: Stratum Corneum, human skin explant model; assay: ETA desquamation after acetone and/or thioglycolate cream pre-treatment (Example 4)
Text: FIG. 7 panels a-d depict decreased desquamation time for the removal of S.C. by ETA on the human skin specimen(s) following thioglycolate cream pre-treatment. Samples either received no treatment (panel a), ETA only (panel b), treated with thioglycolate cream only (panel c), ETA and thioglycolate cream (panel d). The depictions are of live confocal imaging of skin. Images are focusing on the horizontal plane at the most superficial levels. Lighter areas depict areas where DAPI dye has entered the epidermis and staining on the Nuclei of the cells. […] Natural folds in skin surface produce “waves” of staining in these planar-focused live images. The waves of staining are seen in panel b, with about 20%-30% of the area stained, and about 90%-95% of the area stained in panel d (“unstained” regions in panel d are skin folds). However when S.C. is present (panels a and c), DAPI cannot penetrate cells, and is shielded from cellular uptake by the S.C., staining is seen to be less than about 10% in panels a and c.
In order to decrease the incubation time of ETA, the following conditions were additionally evaluated:
Studies were carried out in a human skin explant model using surgical abdominal skin specimens.
Lipid Extraction: The S.C. layer consists of lipids and therefore, acetone was selected as a pre-treatment to dissolve or at least disrupt the lipid structure of the S.C.
Protein Denaturation: The S.C. layer also contains keratin proteins. Keratins can be broken down by thioglycolate, which breaks down rigid disulfide bonds. Samples were pre-treated with thioglycolate cream to break down the keratin layer of the S.C. As a result, the incubation time of ETA was shortened (FIG. 7).
Combination Lipid Extraction and Protein Denaturation: With the pre-treatment of acetone and a thioglycolate cream, separation of S.C. started as early as 2 to 2.5 hours.

[6] = test system: human skin explants; assay: Injected versus topically applied ETA, damage after 24 hours (Example 6)
Experimental: FIG. 10 panels a-h depict the effect of injected and topically applied ETA in a series of concentrations between 5 and 1000 ug/mL after 24 hours.
Damage caused by intra-dermal injection of ETA was compared to normal control skin and topically applied ETA control. A very high concentration of ETA (500 μg/mL) was intra-dermally injected into human skin explants (prepared as described in Example 1) and observed after 24 hours. […] In contrast, methods of the invention topically apply ETA only to the outside surface of skin.

[7] = test system: xenograft human skin in SCID mice; assay: Recovery of S.C. after ETA, serial confocal DAPI staining; format: in vivo
Text: FIG. 11 panels a-i depict DAPI staining on nuclei in an S.C. removed area compared to control (intact S.C.), highlighting the recovery of the S.C. layer over time after the application of ETA on human xenografted skin on mice. […] Day 7-9 and 10-11 (panels e, f) show even less nuclei.
Regarding healing kinetics, using a xenograft human skin in SCID mice model, the healing of removed S.C. was completed within 2 weeks as determined by serial confocal observation of DAPI staining on xenograft skin. With confocal microscope and DAPI staining, the recovery of the S.C. can be observed, as described. DAPI is known to be a fluorescent stain that can pass through the cell membrane and bind strongly to A-T rich regions in DNA, thereby staining the nuclei of cells. With intact S.C., the signal from DAPI cannot be detected by confocal microscope due to the refraction of light against the S.C. as well as the limitation of the depth of light penetration. On the other hand, desquamated skin can produce DAPI signals within cells. DAPI can stain the nuclei of epidermis as long as epidermis remains desquamated. Under inhalation anesthesia, xenografted mouse was taped down on the observatory plates and the xenografted skin was imaged using confocal microscopy. DAPI signal was obtained at baseline and every other day after ETA-mediated desquamation occurred.

[8] = intra-dermally injected, ETA 500 μg/mL, 24 hours

human recombinant insulin: FITC tagged human recombinant insulin (5000 Da)
skin permeability after removal of S.C. by ETA [1]: substantially increased | time to penetration of the dye ([1]; toxin treated skin): ≤ 6 h | penetration of the dye at 12 hours ([1]; toxin treated skin): some dye penetration | penetration of the dye at 24 hours ([1]; toxin treated skin): extensively into the dermis | penetration of the dye at 24 hours ([1]; toxin treated skin, listed as FITC-insulin): deep penetration of the dye

CCN(CC)c1ccc2c(-c3ccc(S(=O)(=O)O)cc3S(=O)(=O)[O-])c3ccc(=[N+](CC)CC)cc-3oc2c1 [Sulforhodamine, sulforhodamine B]
skin permeability, fluorescence in receptor compartment [2]: increase in skin permeability

O=C(O)CO [glycololic acid, glycolic acid]
epidermal or dermal injury ([3]; 20% for 1-3 minutes): epidermal damage and clefting of the dermal-epidermal junction (DEJ) | injury by chemical peeling [3]: uncontrolled or unavoidable additional injury to epidermis

CCNc1cc2[s+]c3cc(N(CC)CC)ccc3nc2c2ccccc12.[Cl-] [EtNBS]
skin permeability after removal of S.C. by ETA [1]: substantially increased | penetration of the dye at 12 hours ([1]; toxin treated skin): penetrating past the epidermis | penetration of the dye at 24 hours ([1]; toxin treated skin): penetrated further

O=C(O)c1ccccc1O [salicylic acid]
injury by chemical peeling [3]: uncontrolled or unavoidable additional injury to epidermis | epidermal or dermal injury ([3]; topical 30%): damage to the epidermis

B1: ETA: protease that cleaves the extracellular portion of desmoglein-1 (Dsg1); Staphylococcus aureus, SEQ ID NO: 01/02 (protein, listed as Staphylococcus aureus)
chain: MNNSKIISKVLLSLSLFTVGASAFVIQDELMQKNHAKAEVSAEEIKKHEEKWNKYYGVNAFNLPKELFSKVDEKDRQKYPYNTIGNVFVKGQTSATGVLIGKNTVLTNRHIAKFANGDPSKVSFRPSINTDDNGNTETPYGEYEVKEILQEPFGAGVDLALIRLKPDQNGVSLGDKISPAKIGTSNDLKDGDKLELIGYPFDHKVNQMHRSEIELTTLSRGLRYYGFTSVPGNSGSGIFNSNGELVGIHSSKVSHLDREHQINYGVGIGNY
effect of buffer on desquamation speed ([4]; 10 mM Tris buffer pH 8.0): no effect | time to remove the S.C. ([4]; ETA 50 μg/mL): ≤ 12 h | S.C. removal, histology (FIG. 1 panel d) ([4]; ETA 50 μg/mL, serial time points up to 12 hours): sub-corneal cleavage and the complete removal of the S.C. | incubation time at which efficacy was achieved ([4]; ETA 1000 μg/mL, buffered pH 6.5 solution): about 3 hours | time to desquamation of the Stratum Corneum ([4]; ETA between 5 and 25 μg/mL, topical): ≤ 24 h | damage to the rest of the epidermis or the dermis ([4]; ETA between 5 and 25 μg/mL, within 24 hours): without damaging the rest of the epidermis or the dermis | time to completely remove the S.C. ([4]; pH 6.5): 4 h | desquamation (FIG. 2 panel d) ([4]; pH 6.5 PIPES buffer, 4 hours): total desquamation | desquamation (FIG. 2 panel b) ([4]; pH 7.4 HEPES buffer, 4 hours): some desquamation | incubation usually expected ([5]; ETA 50 μg/mL, without pre-treatment): 4 to 8 h | area stained by DAPI (FIG. 7 panel d) ([5]; ETA and thioglycolate cream): 90%-95% | area stained by DAPI (FIG. 7 panel b) ([5]; ETA only): 20%-30% | change of reaction time after ETA application ([5]; acetone pre-treatment): slight decrease in reaction time | time at which separation of S.C. started ([5]; pre-treatment of acetone and a thioglycolate cream): 2 to 2.5 h | time of almost complete removal of S.C. ([5]; pre-treatment of acetone and a thioglycolate cream, ETA 50 μg/mL): 3 h | change of incubation time of ETA ([5]; thioglycolate cream pre-treatment): shortened | damage to the epidermis or underlying dermis [6, 8]: no serious damage | exfoliation [6, 8]: more wide spread exfoliation | histological effect ([6]; intradermal injection, ETA 5 μg/mL, 24 hours): desquamation | histological effect ([6]; intradermal injection, ETA 50 μg/mL, 24 hours): desquamation | histological effect ([6]; intradermal injection, ETA 500 μg/mL, 24 hours): clefting at the dermal-epidermal junction (DEJ) | histological effect ([6]; intradermal injection, ETA 1000 μg/mL, 24 hours): clefting at the dermal-epidermal junction (DEJ) | effect compared with intra-dermal injection ([6]; topical ETA 50 μg/mL for 24 hours): much more modest effect | histological effect ([6]; topical application, ETA 5 μg/mL, 24 hours): no change | histological effect ([6]; topical application, ETA 50 μg/mL, 24 hours): desquamation | histological effect ([6]; topical application, ETA 500 μg/mL, 24 hours): desquamation | histological effect ([6]; topical application, ETA 1000 μg/mL, 24 hours): desquamation | DAPI staining of nuclei ([7]; Day 12 after ETA): no nuclei | DAPI staining of nuclei ([7]; Days 1-3 after ETA): significant DAPI staining | time to completed healing of removed S.C. ([7]; after ETA-mediated desquamation): ≤ 2 weeks | re-formation of intact Stratum Corneum complete ([7]; after application of ETA): ≤ 15 days | epidermal or dermal injury ([3]; controlled removal of S.C. using ETA): no epidermal or dermal injury
